What was measured:
[1] = system: potato ga20ox1 promoter (P1, P2, P3) and first intron; test: Gel retardation assay with ga20ox1 promoter regions and first intron; assay type: binding
From the text: The first intron with partial flanking exon sequence (450 bp) of potato ga20ox1 and its promoter (981 bp, provided by Dr. Salomé Prat, CSIC Cantoblanco Campus, Univ. of Madrid, Spain) were used for gel mobility shift assays. Polymerase chain reaction (PCR) was used to amplify three regions of the promoter: -981 to 636 (P1), -660 to 307 (P2), and -331 to 0 (P3). About a 25-bp overlap was maintained between P1 and P2 or P2 and P3 in the chance that the protein-binding site would span the overlapped region. The first intron of this gene was amplified from potato genomic DNA by using PCR and the oligos 5′-[…]-3′ (SEQ ID NO:21) and 5′-[…]-3′ (SEQ ID NO:22) as primers. These primers were designed based on the site of the first intron of the tobacco GA20 oxidase gene Ntc12. The four fragments were purified on a 1.4% agarose gel and labeled with α^32P-dATP using Klenow fragment. […]
In the competition assays, unlabeled double-stranded DNA fragments (10×, 25×, 50×, 100×) were incubated with the recombinant protein before the addition of the radioactive probe. The dissociation rates were determined by adding 500-fold more cold DNA fragments to the DNA-binding reactions that were being incubated on ice, and loaded onto the running gel every 10 minutes. […]

[2] = system: POTH1; test: In vitro binding assay (immunoprecipitation) with POTH1; set-up: species or system Solanum tuberosum; conditions: in vitro transcription/translation, anti-GAD
Description: In vitro binding experiments were performed as described by Ni et al., “PIF3, a Phytochrome-Interacting Factor Necessary for Normal Photoinduced Signal Transduction, is a Novel Basic Helix-Loop-Helix Protein,” Cell 95:657-667 (1998), which is hereby incorporated by reference in its entirety. The full-length sequence for POTH1 was cloned into a pET17b/GAD fusion cassette and transcribed under the control of the T7 promoter. […] Each 50 μl TnT reaction contained 2.0 μg of template plasmid DNA and 20 μmol (20 μCi) of labeled ^35S-methionine. The POTH1:GAD/BEL complex was immunoprecipitated with anti-GAD antibodies (Santa Cruz Biotechnology, Calif.). The proteins from the pellet (one-half the fraction) and for the prey (one-fourth of the reaction volume) were resolved on a 10% SDS-PAGE gel and visualized by autoradiography.

[3] = system: ga20ox1 promoter; test: Transcription assay, GUS reporter driven by ga20ox1 promoter in tobacco protoplasts; assay type: cell-based, potato
From the text: The cauliflower mosaic virus (CaMV) 35S promoter in pBI221 (Clontech, Palo Alto, Calif.) was replaced by an enhancer fragment (-832 to -50) of the 35S promoter plus 980 bp of the ga20ox1 promoter to generate the pGAOP::β-glucuronidase (GUS) reporter construct. With this construct, the reporter GUS transcription level is augmented but its transcription may still be affected by the ga20ox1 promoter. A CaMV 35S promoter-driven luciferase (LUC) construct 35S-LUC (obtained from Dr. Takahashi, Dept. of Biological Sciences, Graduate School of Science, Univ. of Tokyo, Japan) was used as an internal control. Effector constructs were also generated by using pBI221 vector as a backbone, with the GUS gene replaced by the full-length cDNAs of either StBEL-05 or POTH1, downstream of the CaMV 35S promoter. Truncated cDNAs that encode the N-terminal protein-binding domains of StBEL-05 or POTH1 were used to generate the dominant negative constructs, StBEL5ΔC295 and POTH1ΔC122, respectively. The reporter construct with the mutated promoter was generated by site-directed PCR mutagenesis with oligos 5′-CTATTTGACTTC*ACACGGTTATTT-3′ (SEQ ID NO:23) and 5′-AAATAACCGTGTG*AAGTCAAATAG-3′ (SEQ ID NO:24).
Fully expanded leaves from three- to four-week-old tobacco plants were excised and placed in K3 basal media (Kao et al., “Nutritional Requirements for Growth of Vicia hajastana Cells and Protoplasts at a Very Low Density in Liquid Media,” Planta 126:105-110 (1975), which is hereby incorporated by reference in its entirety) supplemented with 0.4 M sucrose, 0.25% (w-v) cellulases (Karlan Research Products, Santa Rosa, CA), and 0.05% (w-v) macerases (Calbiochem, La Jolla, Calif.) and incubated for overnight at 28° C. After incubation, the liberated protoplasts were filtered through sterile cheesecloth into a Babcock bottle, and centrifuged for 10 minutes at 1000 rpm. Protoplasts were collected from the bottleneck area and washed once in K3 media with 0.4 M sucrose and resuspended in K3 media containing 0.4 M glucose to a final concentration of 4×10^6 protoplasts per milliliter. […]
Luciferase assays were performed by injecting 100-μL luciferase substrate (Promega, Madison, Wis.) into 20 μL of extract and measuring the emitted photons for 15 seconds in a TD-20 luminometer (Turner Designs, Sunnyvale, Calif.). […] A fluorescence multiwell plate reader, Fluoroskan II (MTX labs, Vienna, Va.), was used to measure GUS activity at 365 nm (excitation) and 455 nm (emission). Each sample was measured three times for both LUC and GUS activity. Relative GUS-LUC activity was calculated by dividing the ratio of GUS activity to LUC activity from different effectors with the ratio from reporter plasmid alone. Relative activities calculated from three transfection replications were presented as a mean±SE.

Sequence of POTH1 (as listed by the source): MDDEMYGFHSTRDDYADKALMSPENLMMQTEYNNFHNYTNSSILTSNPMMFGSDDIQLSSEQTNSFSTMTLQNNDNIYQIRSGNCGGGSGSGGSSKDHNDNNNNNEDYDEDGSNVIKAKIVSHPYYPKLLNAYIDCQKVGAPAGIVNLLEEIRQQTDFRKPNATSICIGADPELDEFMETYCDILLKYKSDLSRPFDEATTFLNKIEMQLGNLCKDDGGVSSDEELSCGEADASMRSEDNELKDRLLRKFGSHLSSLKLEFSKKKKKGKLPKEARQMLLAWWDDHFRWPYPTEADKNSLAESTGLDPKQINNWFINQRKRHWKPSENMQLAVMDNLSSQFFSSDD

B1: StBEL-05 protein from pGEM11Z (in vitro transcription/translation) (other)
chain: MYYQGTSDNTNIQADHQQRHNHGNSNNNNIQTLYLMNPNNYMQGYTTSDTQQQQQLLFLNSSPAASNALCHANIQHAPLQQQHFVGVPLPAVSLHDQINHHGLLQRMWNNQDQSQQVIVPSSTGVSATSCGGITTDLASQLAFQRPIPTPQHRQQQQQQGGLSLSLSPQLQQQISFNNNISSSSPRTNNVTIRGTLDGSSSNMVLGSKYLKAAQELLDEVVNIVGKSIKGDDQKKDNSMNKESMPLASDVNTNSSGGGESSSRQKNEVAVELTTAQRQELQMKKAKLLAMLEEVEQRYRQYHHQMQIIVLSFEQVAGIGSAKSYTQLALHAISKQFRCLKDAIAEQVKATSKSLGEEEGLGGKIEGSRLKFVDHHLRQQRALQQIGMMQPNAWRPQRGLPERAVSVLRAWLFEHFLHPYPKDSDKIMLAKQTGLTRSQVSNWFINARVRLWKPMVEEMYLEEVKNQEQNSTNTSGDNKNKETNISAPNEEKHPIITSSLLQDGITTTQAEISTSTISTSPTAGASLHHAHNFSFLGSFNMDNTTTTVDHIENNAKKQRNDMHKFSPSSILSSVDMEAKARESSNKGFTNPLMAAYAMGDFGRFDPHDQQMTANFHGNNGVSLTLGLPPSENLAMPVSQQNYLSNDLGSRSEMGSHYNRMGYENIDFQSGNKRFPTQLLPDFVTGNLGT
notes: 35S-methionine labelled prey; also called p11Z-5
binding to ga20ox1 regulatory regions (mobility shift) [1]: retarded the mobility of all three promoter sequences and the first intron | pull-down by POTH1 in immunoprecipitation [2]: pulled down | relative GUS-LUC activity of the pGAOP::GUS reporter construct ([3]; co-transfected effector, reporter alone = 100%): decreased by more than half | repression of promoter activity, reporter with point mutation in the binding site ([3]; mutated ga20ox1 promoter): no detectable repression

Source: patent US7265263B1, “Potato transcription factors, methods of use thereof, and a method for enhancing tuber development” (Iowa State University Research Foundation, Inc., priority 2002, dated 2007)
